The numbers were not newly measured in paper PMC3121775, which cites them from elsewhere.

In the data set the target is Harakiri BH3 peptide BH3 (Homo sapiens) (UniProt O00198). In words: fluorescence.

Sequence of Bcl-xL (Q07817 whole entry): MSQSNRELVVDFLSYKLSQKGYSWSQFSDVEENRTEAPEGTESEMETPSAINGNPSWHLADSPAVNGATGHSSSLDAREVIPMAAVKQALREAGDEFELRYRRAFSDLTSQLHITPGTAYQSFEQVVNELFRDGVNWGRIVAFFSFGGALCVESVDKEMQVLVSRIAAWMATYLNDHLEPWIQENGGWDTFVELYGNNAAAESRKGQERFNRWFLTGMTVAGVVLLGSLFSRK

For the substance Bcl-xL (from UniProt Q07817), the Kd was 92 nM.

By Kd is commonly meant the concentration at which binding is half-saturated.
